Two substances from publication PMC9402603 can be followed below.

Test [1] addresses kpChbG E23K/D224K double-mutant (Klebsiella pneumoniae) (UniProt A6T7U7).
The target of test [2] is ChbG from Klebsiella pneumoniae (chitooligosaccharide deacetylase), wild type (Klebsiella pneumoniae) (UniProt A6T7U7). Kind of test: SEC-MALS; kpChbG 5 mg/mL, Superdex 200 10/300, SEC buffer (20 mM Tris-HCl pH 8.0, 150 mM NaCl), 0.4 mL/min, 25 °C, DAWN-Treos MALS detector.
Test [3] shares this target. The test is described as follows: SEC; Superdex 200 Increase 10/300 GL (24 mL), 20 mM Tris-HCl pH 8.0, 150 mM NaCl, 0.4 mL/min, 4 °C; wild type elutes at approximately 15 mL, E23K/D224K at approximately 17 mL.

As to “kpChbG E23K/D224K double-mutant (from UniProt A6T7U7 1-252) (enzyme)”, the deacetylation of N,N’-diacetylchitobiose measured by ESI-MS, dimerization disrupting mutant E23K/D224K against wild type in test [1] was > 50%.
Regarding “ChbG from Klebsiella pneumoniae (chitooligosaccharide deacetylase), wild type (from UniProt A6T7U7 1-252) (enzyme)”, the stoichiometry N in test [2] and in test [3] was 2 throughout.
